Assay results published in patent publication US20070232789A1 (UNIVERSITY OF MARYLAND BALTIMORE, published 2007).
Residue numbers refer to the chain shown, from its start.

T1: A1/A3-C1-C2 heterodimer of factor VIII, plasma-derived (human, UniProt P00451 20-391; P00451 1709-2351)
T1 sequence 1: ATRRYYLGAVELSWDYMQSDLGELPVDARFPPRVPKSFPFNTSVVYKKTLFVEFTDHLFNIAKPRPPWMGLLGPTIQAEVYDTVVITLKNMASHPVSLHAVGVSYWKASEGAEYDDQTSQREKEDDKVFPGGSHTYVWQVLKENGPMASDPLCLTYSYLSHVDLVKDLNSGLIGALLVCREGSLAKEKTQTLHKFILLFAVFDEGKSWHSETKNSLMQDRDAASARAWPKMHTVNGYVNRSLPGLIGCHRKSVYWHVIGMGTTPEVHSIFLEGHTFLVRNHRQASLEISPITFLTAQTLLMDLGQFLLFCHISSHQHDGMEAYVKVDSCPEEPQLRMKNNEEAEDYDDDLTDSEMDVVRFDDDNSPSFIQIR
T1 sequence 2: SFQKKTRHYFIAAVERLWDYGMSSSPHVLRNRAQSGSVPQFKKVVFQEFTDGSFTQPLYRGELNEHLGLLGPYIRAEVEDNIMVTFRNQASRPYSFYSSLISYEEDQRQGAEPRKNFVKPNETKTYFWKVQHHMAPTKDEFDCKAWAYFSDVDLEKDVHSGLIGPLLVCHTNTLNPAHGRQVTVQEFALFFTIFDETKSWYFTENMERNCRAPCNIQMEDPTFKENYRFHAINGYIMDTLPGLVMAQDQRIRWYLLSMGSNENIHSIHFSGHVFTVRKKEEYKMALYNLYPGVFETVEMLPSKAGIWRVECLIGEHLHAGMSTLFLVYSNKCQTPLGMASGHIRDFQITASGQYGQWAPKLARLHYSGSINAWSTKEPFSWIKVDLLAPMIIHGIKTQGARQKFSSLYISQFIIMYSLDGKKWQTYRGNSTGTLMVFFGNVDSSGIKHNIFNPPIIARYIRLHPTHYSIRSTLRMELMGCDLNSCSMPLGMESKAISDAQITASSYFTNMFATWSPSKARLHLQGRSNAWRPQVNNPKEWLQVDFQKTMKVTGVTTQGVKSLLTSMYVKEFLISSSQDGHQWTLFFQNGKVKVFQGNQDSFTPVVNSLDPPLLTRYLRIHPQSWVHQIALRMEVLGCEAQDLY

B1: recombinant wild-type A2 domain of human factor VIII (hx-A2) (other)
chain: SGAKKHPKTWVHYIAAEEEDWDYAPLVLAPDDRSYKSQYLNNGPQRIGRKYKKVRFMAYTDETFKTREAIQHESGILGPLLYGEVGDTLLIIFKNQASRPYNIYPHGITDVRPLYSRRLPKGVKHLKDFPILPGEIFKYKWTVTVEDGPTKSDPRCLTRYYSSFVNMERDLASGLIGPLLICYKESVDQRGNQIMSDKRNVILFSVFDENRSWYLTENIQRFLPNPAGVQLEDPEFQASNIMHSINGYVFDSLQLSVCLHEVAYWYILSIGAQTDFLSVFFSGYTFKHKMVYEDTLTLFPFSGETVFMSMENPGLWILGCHNSDFRNRGMTALLKVSSCDKNTGDYYEDSYEDISAYLLSKNNAIEPR
notes: Secreted from Sf9 cells as hx-A2 and purified on mAb 8860; Removal of the tag is not reported; also called wt-A2; recombinant A2; not shown: N-terminal hx leader (6xHis tag, vector-derived linker, factor Xa site)
B2: recombinant A2 mutant #1 (Lys-376 to Ala) (other)
chain: B1 chain with K4A
notes: hx-A2 form from Sf9 cells; not shown: N-terminal hx leader (6xHis tag, vector-derived linker, factor Xa site)
B3: recombinant A2 mutant #8 (Tyr-487 to Ala) (other)
chain: B1 chain with Y115A
notes: hx-A2 form from Sf9 cells
B4: recombinant A2 mutant #9 (Ser-488 to Ala) (other)
chain: B1 chain with S116A
notes: hx-A2 form from Sf9 cells
B5: recombinant A2 mutant #10 (Arg-489 to Ala) (other)
chain: B1 chain with R117A
notes: hx-A2 form from Sf9 cells
B6: recombinant A2 mutant #11 (Arg-490 to Ala) (other)
chain: B1 chain with R118A
notes: hx-A2 form from Sf9 cells
B7: recombinant A2 mutant #12 (Leu-491 to Ala) (other)
chain: B1 chain with L119A
notes: hx-A2 form from Sf9 cells
B8: recombinant A2 mutant #13 (Lys-493 to Ala) (other)
chain: B1 chain with K121A
notes: hx-A2 form from Sf9 cells
B9: recombinant A2 mutant #14 (Lys-496 to Ala) (other)
chain: B1 chain with K124A
notes: hx-A2 form from Sf9 cells
B10: recombinant A2 mutant #15 (His-497 to Ala) (other)
chain: B1 chain with H125A
notes: hx-A2 form from Sf9 cells
B11: recombinant A2 mutant #16 (His-499 to Ala as printed in Tables 1 and 2; Lys^499 in the text) (other)
chain: B1 chain with K127A
notes: hx-A2 form from Sf9 cells; also called Lys^499 Ala mutant; not shown: N-terminal hx leader (6xHis tag, vector-derived linker, factor Xa site)
B12: recombinant A2 mutant #17 (Lys-510 to Ala) (other)
chain: B1 chain with K138A
notes: as for B2
B13: recombinant A2 mutant #18 (Lys-512 to Ala) (other)
chain: B1 chain with K140A
notes: as for B2
B14: recombinant A2 mutant #19 (Lys-523 to Ala) (other)
chain: B1 chain with K151A
notes: as for B2
B15: recombinant A2 mutant #20 (Lys-556 to Ala) (other)
chain: B1 chain with K184A
notes: as for B2
B16: 39 kDa receptor-associated protein (RAP), human, expressed in bacteria (other)
chain: YSREKNQPKPSPKRESGEEFRMEKLNQLWEKAQRLHLPPVRLAELHADLKIQERDELAWKKLKLDGLDEDGEKEARLIRNLNVILAKYGLDGKKDARQVTSNSLSGTQEDGLDDPRLEKLWHKAKTSGKFSGEELDKLWREFLHHKEKVHEYNVLLETLSRTEEIHENVISPSDLSDIKGSVLHSRHTELKEKLRSINQGLDRLRRVSHQGYSTEAEFEEPRVIDLWDLAQSANLTDKELEAFREELKHFEAKIEKHNHYQKQLEIAHEKLRHAESVGDGERVSRSREKHALLEGRTKELGYTVKKHLQDLSGRISRARHNEL
notes: also called α2 macroglobulin receptor-associated protein

Assays:
[1] = biological target: T2, low-density lipoprotein receptor-related protein (LRP), purified (human, UniProt Q07954 20-4544); test: SPR, BIAcore 3000, one-site model, KD = koff/kon
T2 construct: mature; also called low density lipoprotein receptor-related protein/α2-macroglobulin receptor; LRP receptor
T2 sequence (Q07954 20-4544, form in doubt): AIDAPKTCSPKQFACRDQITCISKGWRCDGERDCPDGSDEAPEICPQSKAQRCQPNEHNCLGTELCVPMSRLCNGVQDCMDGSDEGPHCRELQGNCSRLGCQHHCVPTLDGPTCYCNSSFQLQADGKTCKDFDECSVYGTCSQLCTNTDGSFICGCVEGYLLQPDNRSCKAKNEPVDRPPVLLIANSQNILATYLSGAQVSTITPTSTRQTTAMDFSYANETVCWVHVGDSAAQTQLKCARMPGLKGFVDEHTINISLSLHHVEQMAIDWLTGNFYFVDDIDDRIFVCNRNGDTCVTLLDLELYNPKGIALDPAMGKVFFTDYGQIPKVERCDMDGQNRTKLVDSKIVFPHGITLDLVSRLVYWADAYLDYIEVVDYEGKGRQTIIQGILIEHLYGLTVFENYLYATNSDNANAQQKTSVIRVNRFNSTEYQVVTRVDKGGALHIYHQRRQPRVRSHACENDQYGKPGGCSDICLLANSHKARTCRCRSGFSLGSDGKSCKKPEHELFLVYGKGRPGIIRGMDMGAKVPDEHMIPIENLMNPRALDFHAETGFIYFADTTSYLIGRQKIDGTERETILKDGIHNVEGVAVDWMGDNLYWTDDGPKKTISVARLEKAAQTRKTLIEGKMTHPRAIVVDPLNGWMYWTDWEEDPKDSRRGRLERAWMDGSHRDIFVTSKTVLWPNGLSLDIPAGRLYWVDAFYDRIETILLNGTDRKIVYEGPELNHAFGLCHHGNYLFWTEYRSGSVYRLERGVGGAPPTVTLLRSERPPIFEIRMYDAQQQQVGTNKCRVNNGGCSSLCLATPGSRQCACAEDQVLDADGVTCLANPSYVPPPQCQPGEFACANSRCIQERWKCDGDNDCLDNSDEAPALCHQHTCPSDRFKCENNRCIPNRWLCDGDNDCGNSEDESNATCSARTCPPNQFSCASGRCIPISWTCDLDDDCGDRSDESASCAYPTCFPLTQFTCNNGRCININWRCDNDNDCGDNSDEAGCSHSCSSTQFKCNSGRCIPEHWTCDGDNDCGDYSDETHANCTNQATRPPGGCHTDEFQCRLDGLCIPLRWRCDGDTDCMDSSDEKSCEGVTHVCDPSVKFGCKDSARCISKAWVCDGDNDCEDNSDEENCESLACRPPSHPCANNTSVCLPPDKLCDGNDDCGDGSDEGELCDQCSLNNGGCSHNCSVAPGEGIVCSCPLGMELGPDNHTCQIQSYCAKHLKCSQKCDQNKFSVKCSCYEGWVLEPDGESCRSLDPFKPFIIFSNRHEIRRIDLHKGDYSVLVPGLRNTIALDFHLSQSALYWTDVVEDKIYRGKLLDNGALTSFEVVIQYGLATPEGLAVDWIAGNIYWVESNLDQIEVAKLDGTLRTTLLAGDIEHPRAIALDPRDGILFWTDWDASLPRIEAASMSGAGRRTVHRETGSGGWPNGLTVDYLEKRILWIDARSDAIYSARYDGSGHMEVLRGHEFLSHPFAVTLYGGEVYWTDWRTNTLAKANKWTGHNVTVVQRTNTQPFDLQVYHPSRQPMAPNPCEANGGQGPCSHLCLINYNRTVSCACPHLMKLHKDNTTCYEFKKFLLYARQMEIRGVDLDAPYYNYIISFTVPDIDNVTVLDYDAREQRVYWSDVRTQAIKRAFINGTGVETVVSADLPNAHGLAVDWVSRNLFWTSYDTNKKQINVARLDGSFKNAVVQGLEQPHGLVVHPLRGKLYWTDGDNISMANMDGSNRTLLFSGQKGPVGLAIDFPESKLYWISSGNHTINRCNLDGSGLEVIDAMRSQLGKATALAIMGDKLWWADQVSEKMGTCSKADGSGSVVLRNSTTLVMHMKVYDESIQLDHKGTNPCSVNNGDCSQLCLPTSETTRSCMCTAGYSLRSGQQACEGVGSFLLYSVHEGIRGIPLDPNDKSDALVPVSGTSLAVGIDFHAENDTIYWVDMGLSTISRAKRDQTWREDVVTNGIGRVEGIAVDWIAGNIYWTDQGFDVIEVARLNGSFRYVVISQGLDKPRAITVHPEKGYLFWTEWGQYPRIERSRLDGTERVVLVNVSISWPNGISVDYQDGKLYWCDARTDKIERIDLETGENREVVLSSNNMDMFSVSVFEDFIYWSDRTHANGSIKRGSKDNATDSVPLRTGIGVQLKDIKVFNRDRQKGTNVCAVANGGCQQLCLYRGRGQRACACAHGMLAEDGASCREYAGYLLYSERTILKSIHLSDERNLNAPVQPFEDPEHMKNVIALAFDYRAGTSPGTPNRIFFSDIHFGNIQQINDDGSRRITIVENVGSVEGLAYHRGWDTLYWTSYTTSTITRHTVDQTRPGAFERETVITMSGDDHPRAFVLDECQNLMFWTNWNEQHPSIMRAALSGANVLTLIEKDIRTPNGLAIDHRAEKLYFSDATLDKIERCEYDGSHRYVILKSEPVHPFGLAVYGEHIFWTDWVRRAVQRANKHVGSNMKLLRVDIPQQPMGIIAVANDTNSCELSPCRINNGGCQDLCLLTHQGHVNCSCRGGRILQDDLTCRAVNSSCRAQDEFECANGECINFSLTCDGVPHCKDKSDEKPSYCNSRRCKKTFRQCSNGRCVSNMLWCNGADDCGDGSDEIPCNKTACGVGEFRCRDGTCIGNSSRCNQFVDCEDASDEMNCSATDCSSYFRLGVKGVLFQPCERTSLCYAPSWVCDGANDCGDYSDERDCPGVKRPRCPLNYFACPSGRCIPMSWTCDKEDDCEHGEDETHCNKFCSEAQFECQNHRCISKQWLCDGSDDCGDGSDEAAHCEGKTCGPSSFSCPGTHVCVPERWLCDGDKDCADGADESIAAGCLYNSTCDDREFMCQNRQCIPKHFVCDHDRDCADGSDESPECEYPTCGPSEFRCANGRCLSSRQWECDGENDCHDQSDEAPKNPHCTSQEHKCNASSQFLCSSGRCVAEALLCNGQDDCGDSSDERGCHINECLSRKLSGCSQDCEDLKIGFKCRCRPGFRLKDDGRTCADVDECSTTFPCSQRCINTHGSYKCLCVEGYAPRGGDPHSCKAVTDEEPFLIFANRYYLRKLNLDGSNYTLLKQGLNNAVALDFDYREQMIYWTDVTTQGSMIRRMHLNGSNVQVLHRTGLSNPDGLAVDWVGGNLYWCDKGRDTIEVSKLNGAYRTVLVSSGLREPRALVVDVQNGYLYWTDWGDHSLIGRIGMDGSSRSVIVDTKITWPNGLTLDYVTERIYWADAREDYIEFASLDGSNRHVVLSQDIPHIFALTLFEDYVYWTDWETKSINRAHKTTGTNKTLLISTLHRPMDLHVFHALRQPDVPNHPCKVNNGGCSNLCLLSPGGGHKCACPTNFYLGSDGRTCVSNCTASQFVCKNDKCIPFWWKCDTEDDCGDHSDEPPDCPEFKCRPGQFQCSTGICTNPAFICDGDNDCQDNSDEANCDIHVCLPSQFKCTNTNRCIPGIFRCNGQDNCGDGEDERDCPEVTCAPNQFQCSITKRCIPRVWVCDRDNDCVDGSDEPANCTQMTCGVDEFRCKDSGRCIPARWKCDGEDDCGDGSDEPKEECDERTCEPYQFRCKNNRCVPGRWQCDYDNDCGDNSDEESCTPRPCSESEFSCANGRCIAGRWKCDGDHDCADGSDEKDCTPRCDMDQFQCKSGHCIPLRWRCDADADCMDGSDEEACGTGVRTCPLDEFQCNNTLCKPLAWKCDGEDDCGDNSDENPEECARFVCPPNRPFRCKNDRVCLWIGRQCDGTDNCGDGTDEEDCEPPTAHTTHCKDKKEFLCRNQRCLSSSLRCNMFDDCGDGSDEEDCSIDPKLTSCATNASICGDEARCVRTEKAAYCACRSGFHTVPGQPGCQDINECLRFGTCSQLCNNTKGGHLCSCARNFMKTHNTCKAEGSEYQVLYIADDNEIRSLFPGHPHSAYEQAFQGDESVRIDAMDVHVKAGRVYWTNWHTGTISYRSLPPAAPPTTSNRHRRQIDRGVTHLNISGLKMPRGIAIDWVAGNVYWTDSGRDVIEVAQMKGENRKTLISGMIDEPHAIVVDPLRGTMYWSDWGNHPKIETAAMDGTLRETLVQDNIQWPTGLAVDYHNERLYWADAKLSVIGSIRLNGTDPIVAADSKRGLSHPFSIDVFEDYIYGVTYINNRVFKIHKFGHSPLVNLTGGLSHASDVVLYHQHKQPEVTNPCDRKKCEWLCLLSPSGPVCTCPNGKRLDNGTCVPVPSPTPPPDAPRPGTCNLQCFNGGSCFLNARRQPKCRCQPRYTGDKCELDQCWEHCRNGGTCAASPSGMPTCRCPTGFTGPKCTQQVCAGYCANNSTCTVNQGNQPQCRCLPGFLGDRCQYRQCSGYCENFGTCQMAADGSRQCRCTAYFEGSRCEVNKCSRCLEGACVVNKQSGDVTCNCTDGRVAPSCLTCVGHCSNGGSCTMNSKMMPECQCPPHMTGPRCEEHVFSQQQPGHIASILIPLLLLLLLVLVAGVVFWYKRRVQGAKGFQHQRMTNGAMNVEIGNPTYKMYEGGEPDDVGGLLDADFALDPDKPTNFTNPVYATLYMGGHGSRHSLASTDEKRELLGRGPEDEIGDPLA
Text: (§1) Surface plasmon resonance-based binding assay. […] This system allows real-time biomolecular interaction analysis (BIA) using surface plasmon resonance (SPR) technology. One molecule (the ligand) is usually immobilized on the surface of the sensor chip; the second molecule (the analyte) in solution is passed over the chip under conditions of continuous flow, and the amount of the bound analyte is detected by the system. SPR is a non-invasive optical measuring technique which measures the mass concentration of biomolecules in close proximity to the sensor chip where association and dissociation of biomolecular complexes occurs. […] The association (kₒₙ) and dissociation (koff) rate constants were determined using BIAevaluation Version 3.1 software. The data were corrected for bulk refraction index changes and fitted to a one-site binding model by a non-linear regression analysis Equilibrium dissociation constants (KD) were calculated from the ratio koff/kₒₙ.

[2] = biological target: T1, A1/A3-C1-C2 heterodimer of factor VIII, …; test: cell-based or functional assay
[3] = biological target: T2, low-density lipoprotein …; test: SPR, BIAcore 3000
Text: as §1

[4] = biological target: T2, low-density lipoprotein …; test: competition: peptide 484-509 varied, competitor 125I-fVIII, LRP-coated microtiter wells
Procedure: FIGS. 17A-17B. […] The mean and standard deviation of the triplicate measurements are presented.
(§2) Solid-phase binding assays. […] Microtiter wells were coated with purified LRP or BSA (3 μg/ml) in 50 mM Tris, 0.15 M NaCl, pH 8.0, for 16 h and then blocked with 3% BSA in TBS. […] The radioactivity bound to the wells was counted using a γ-counter (Pharmacia). Affinity constants were derived from homologous and heterologous displacement data using the computer program LIGAND (Munson, P T and Rodbard, D. Anal. Biochem. 107:220-239 (1980)).

[5] = biological target: T2, low-density lipoprotein …; test: heterologous ligand displacement: RAP varied, competitor 125I-fVIII (1 nM), LRP-coated microtiter wells
Procedure: (§3) FIGS. 15A-15B. […] Each point represents the mean value of triplicates and the error bars display the standard deviation. The curves show a best fit of the data to a model describing heterologous ligand displacement from a single class of binding sites using the program LIGAND.
as §2

[6] = biological target: T2, low-density lipoprotein …; test: heterologous displacement of ^125I-fVIII (1 nM) from LRP-coated wells
Procedure: as §3, §2

Row | Binder | Kd [1] [µM] | Activity of reconstituted FVIIIa (% of wt activity) [2] | also measured
1 | B1 | 0.021 | 100 % of wt activity | 
2 | B2 | 0.0255 | 73.9 % of wt activity | 
3 | B3 | 0.097 | 87.9 % of wt activity | fold decrease of affinity against wt-A2 [3]: 5 fold
4 | B4 | 0.067 | 232 % of wt activity | 
5 | B5 | 0.15 | 130 % of wt activity | fold decrease of affinity against wt-A2 [3]: 7 fold
6 | B6 | 0.059 | 151 % of wt activity | 
7 | B7 | 0.021 | 518 % of wt activity | 
8 | B8 | 0.018 | 267 % of wt activity | 
9 | B9 | 0.0095 | 263 % of wt activity | 
10 | B10 | 0.051 | 242 % of wt activity | 
11 | B11 | 0.033 | 128 % of wt activity | 
12 | B12 | 0.029 | 91.5 % of wt activity | 
13 | B13 | 0.021 | 219 % of wt activity | 
14 | B14 | 0.041 | 390 % of wt activity | 
15 | B15 | 0.033 | 196 % of wt activity | 
16 | RPLYSRRLPKGVKHLKDFPILPGEIF [synthetic A2 domain peptide 484-509] |  |  | IC50 (read off the curve) [4]: ~1 µM
17 | B16 |  |  | IC50 (read off the curve) [5]: ~0.002 µM; Ki [6]: 0.0025 µM
